This note sets out measurements from patent publication US20060177479A1.

This assay has as its target Notch receptor expressed on rat esophageal epithelial cells (rat). Nature of the assay: cell-based or functional assay.

Take “Recombinant Rat Jagged-1/Fc chimera (Fc fusion)”: the Notch/CSL signaling (luciferase/Renilla intensity), immobilized Jagged-1/Fc against Fc control was found to be 10 fold and the increase in luciferase activity as compared to Fc control plates, 10 nM Jagged-1/Fc precoat, 24 hours was in the range of 4 to 10 fold.
